US20230364000A1, “COMPOSITIONS COMPRISING COMBINATIONS OF COLLAGEN OR ELASTIN POLYPEPTIDES WITH ACTIVE INGREDIENTS AND METHODS OF USING SAME” (Geltor, Inc., priority 2020, published 2023)

How the values were obtained:
[1] = test system: Human full-thickness skin equivalents (MatTek Epiderm FT co-culture tissue models); experiment: Elastin production in human full-thickness skin equivalents (ELISA); assay type: cell-based; settings: polypeptide 0.1% w/w, retinol (10, unit not given), ascorbic acid 2% w/w, FIG. 20; for increase of elastin production relative to untreated control: day 2 supernatant; for production of elastin as compared to untreated cells: each agent alone, day 2, hyaluronic acid 0.1% w/w
Text: The combination of the truncated human type 21 collagen polypeptide with retinol increased elastin production by 45% relative to untreated control. This appeared to be a synergistic effect as treatment with truncated human type 21 collagen polypeptide alone increased elastin production by 20% and treatment with retinol alone increased elastin production by 17%. The combination of the truncated human type 21 collagen polypeptide with ascorbic acid increased elastin production by 33% relative to untreated control. This appeared to be a synergistic effect as treatment with truncated human type 21 collagen polypeptide alone increased elastin production by 20% and treatment with ascorbic acid alone increased elastin production by 5%.

[2] = test system: Human full-thickness skin equivalents (MatTek Epiderm FT co-culture tissue models); experiment: Fibronectin production in human full-thickness skin equivalents (ELISA); assay type: cell-based; settings: polypeptide 0.1% w/w, FIG. 19; for production of fibronectin as compared to untreated cells: each agent alone, day 4, retinol (10, unit not given), ascorbic acid 2% w/w, hyaluronic acid 0.1% w/w
[3] = test system: Human full-thickness skin equivalents (MatTek Epiderm FT co-culture tissue models); experiment: Type I collagen production in human full-thickness skin equivalents (pro-collagen type I C-peptide ELISA); assay type: cell-based; settings: polypeptide 0.1% w/w, FIG. 18; for production of type I collagen as compared to untreated cells: each agent alone, day 4, retinol (10, unit not given), ascorbic acid 2% w/w, hyaluronic acid 0.1% w/w
Protocol: Human full-thickness skin equivalents (MatTek Epiderm FT co-culture tissue models) which contain keratinocytes and fibroblasts were treated with a 0.1% w/w truncated human type 21 collagen polypeptide (having an amino acid sequence of SEQ ID NO: 16) (“C21”; FIG. […] Culture medium was changed every 2 days. On day 4, supernatant was collected and analyzed by enzyme-linked immunosorbent assay (ELISA) for pro-collagen type I C-peptide, which is a readout for total secreted collagen type I protein.

[4] = test system: Human full-thickness skin equivalents (MatTek Epiderm FT co-culture tissue models); experiment: Type III collagen production in human full-thickness skin equivalents (pro-collagen type III N-peptide ELISA); assay type: cell-based; settings: polypeptide 0.1% w/w, ascorbic acid 2% w/w, FIG. 21; for production of type III collagen as compared to untreated cells: each agent alone, day 2, retinol (10, unit not given), hyaluronic acid 0.1% w/w
[5] = test system: in vitro full thickness human skin tissue model (MatTek); experiment: Collagen type I secretion by full thickness human skin tissue model (pro-collagen type I C-peptide ELISA); assay type: cell-based; settings: treatment 48 hours, fresh media another 48 hours (96 hour timepoint); compared with untreated tissue models or positive control Vitamin B3; FIG. 10
Protocol: A series of in vitro experiments were conducted to assess the effects of a truncated jellyfish collagen on human skin fibroblasts and keratinocytes. An in vitro full thickness human skin tissue model (MatTek) which contains fibroblasts and keratinocytes was evaluated for collagen type I secretion after treatment with a polypeptide of SEQ ID NO: 5 for 48 hours. The tissue models were then rinsed and incubated with fresh media for another 48 hours (96 hour timepoint). The culture supernatants were analyzed by ELISA for pro-collagen type I C-peptide (a readout for total secreted collagen type I protein).

facial skin [6] = experiment: Facial skin hydration, clinical study of Example 7; assay type: in vivo, human; settings: topical facial cream 0.05%, n=18, FIG. 16
Text: (§1) In a clinical study (n=18 subjects), subjects used a topical facial cream containing 0.05% of a polypeptide of SEQ ID NO: 5 for 2 weeks.

[7] = test system: human primary keratinocytes; experiment: MTT viability of UVB-irradiated keratinocytes, post-irradiation treatment; assay type: cell-based; settings: 40 mJ/cm^2 UVB, then 48 hours with 0.03%; compared with untreated UVB-irradiated keratinocytes; FIG. 12
Protocol: Human primary keratinocytes were irradiated with 40 mJ/cm^2 UVB light, then incubated for 48 hours in media with 0.03% of a polypeptide of SEQ ID NO: 5. Cell viability was evaluated using the MTT metabolic colorimetric assay.

facial skin [8] = experiment: Cutometer facial skin elasticity, clinical study of Example 7; assay type: in vivo, human; settings: topical facial cream 0.05%, n=18, FIG. 17
Text: as §1

[9] = test system: in vitro full thickness human skin tissue model (MatTek); experiment: IL-la ELISA in UVB-irradiated full thickness human skin tissue model; assay type: cell-based; settings: 300 mJ/cm^2 UVB, then 0.01% for 24 hours; compared to untreated UVB-irradiated control; FIG. 14
Protocol: In a further study with the in vitro full thickness human skin tissue model (MatTek), the MatTek tissue models were irradiated with 300 mJ/cm^2 UVB light, then treated with 0.01% of a polypeptide of SEQ ID NO: 5 for 24 hours. Levels of pro-inflammatory cytokine IL-la was determined by ELISA.

[10] = Oxygen radical absorbance capacity (ORAC) assay, cell-free; assay type: biochemical; settings: for anti-oxidative capacity (ORAC): FIG. 25
Protocol: The antioxidant potential of a polypeptide of SEQ ID NO: 16 was assessed using the oxygen free radical absorbance capacity (ORAC) assay. The ORAC assay is a cell-free assay that uses a fluorescent readout to measure a product's antioxidant capacity. Data is reported in Trolox (Vitamin E) equivalents.
A polypeptide of SEQ ID NO: 5 was also evaluated in the ORAC assay.
An oxygen radical absorbance capacity (ORAC) assay was performed to analyze the anti-oxidative capacity of a polypeptide according to SEQ ID NO: 52. The ORAC assay is a cell-free assay that uses a fluorescent readout to measure anti-oxidative capacity. Data is reported in Trolox (Vitamin E) equivalents (TEs).

[11] = test system: human primary keratinocytes; experiment: Thymine dimers in UVB-irradiated keratinocytes (OxiSelect UV-Induced DNA Damage ELISA); assay type: cell-based; settings: 25 mJ/cm^2 UVB, then overnight with 0.03%; compared with untreated cells; FIG. 11
Protocol: In a further study, human primary keratinocytes were irradiated with 25 mJ/cm^2 UVB light, then incubated overnight in media with 0.03% of a polypeptide of SEQ ID NO: 5. DNA was extracted from the cells and analyzed for levels of thymine dimers (an indicator of DNA damage) using an OxiSelect UV-Induced DNA Damage ELISA kit.

[12] = test system: human primary keratinocytes; experiment: MTT viability of keratinocytes exposed to urban dust; assay type: cell-based; settings: pre-treated with 0.03% for 24 hours, then 2 mg/ml urban dust (NIST 1649B) for 24 hours; compared with untreated exposed keratinocytes; FIG. 13
Protocol: To test for protection from urban dust, human primary keratinocytes were pre-treated with 0.03% of a polypeptide of SEQ ID NO: 5 for 24 hours, and then exposed to 2 mg/ml urban dust (NIST 1649B) for 24 hours. Cell viability was evaluated using the MTT metabolic colorimetric assay.

[13] = test system: human primary fibroblasts; experiment: Fibroblast collagen type I protein secretion with truncated elastin (pro-collagen type I C-peptide ELISA); assay type: cell-based; settings: 48 hours, compared with untreated control fibroblasts, FIG. 24
Protocol: Fibroblasts are the main source of the extracellular matrix peptides, including the structural proteins collagen and elastin. Human primary fibroblasts were evaluated for collagen type I protein secretion. Fibroblasts were cultured with a polypeptide according to SEQ ID NO: 52 for 48 hours. The culture supernatants were analyzed by ELISA for pro-collagen type I C-peptide, a readout for total secreted collagen type I protein.

[14] = test system: Human primary fibroblast cultures; experiment: Fibroblast elastin production (ELISA kit); assay type: cell-based; settings: 0.03% w/w solution; 24 hours; compared to media alone; FIG. 28
Protocol: Human primary fibroblast cultures were treated for 24 hours with media alone (untreated) or with 0.03% w/w solution of a polypeptide having an amino acid sequence according to SEQ ID NO: 52. Supernatants were collected and evaluated for elastin production using an ELISA kit.

Keratinocytes = experiment: Clariom microarray global gene expression in keratinocytes; assay type: cell-based; settings: 0.03% w/w solution, 24 hours, relative to untreated cells
Protocol: Keratinocytes were incubated for 24 hours with media alone or with 0.03% w/w solution of a polypeptide according to SEQ ID NO: 52. RNA was extracted from the cells and analyzed by Clariom microarray (ThermoFisher) for global gene expression.
Keratinocytes were incubated for 24 hours with media alone (untreated) or with 0.03% w/w solution of a polypeptide according to SEQ ID NO: 52. RNA was extracted from the cells and analyzed by Clariom microarray (ThermoFisher) for global gene expression.

[15] = day 4 supernatant, hyaluronic acid 0.1% w/w (low molecular weight, 15-40 kDa)

O=C1O[C@H]([C@@H](O)CO)C(O)=C1O [ascorbic acid]
increase of elastin production relative to untreated control [1]: 5% | production of elastin as compared to untreated cells [1]: increased production | production of fibronectin as compared to untreated cells [2]: increased production | production of type I collagen as compared to untreated cells [3]: increased production | increase of type III collagen production relative to untreated control ([4]; day 2 supernatant): 80% | production of type III collagen as compared to untreated cells [4]: increased production

CC1=C(/C=C/C(C)=C/C=C/C(C)=C/CO)C(C)(C)CCC1 [retinol]
increase of elastin production relative to untreated control [1]: 17% | production of elastin as compared to untreated cells [1]: increased production | production of fibronectin as compared to untreated cells [2]: increased production | production of type I collagen as compared to untreated cells [3]: increased production | production of type III collagen as compared to untreated cells [4]: increased production

hyaluronic acid
production of elastin as compared to untreated cells [1]: increased production | increase of fibronectin production relative to untreated control [2, 15]: 30% | production of fibronectin as compared to untreated cells [2]: increased production | increase of type I collagen production relative to the untreated control [3, 15]: 72% | production of type I collagen as compared to untreated cells [3]: increased production | production of type III collagen as compared to untreated cells [4]: increased production

B1: SEQ ID NO: 5: truncated jellyfish collagen without a His tag, linker, and thrombin cleavage site (protein)
chain: GPQGVVGADGKDGTPGNAGQKGPSGEPGSPGKAGSAGEQGPPGKDGSNGEPGSPGKEGERGLAGPPGPDGRRGETGSPGIAGALGKPGLEGPKGYPGLRGRDGTNGKRGEQGETGPDGVRGIPGNDGQSGKPGIDGIDGTNGQPGEAGYQGGRGTRGQLGETGDVGQNGDRGAPGPDGSKGSAGRPGLR
secreted collagen type I (pro-collagen type I C-peptide) [5]: higher levels | skin hydration (facial skin [6]; 1 week vs baseline): increased | skin hydration (facial skin [6]; 2 weeks vs baseline): increased | skin hydration relative to topical application of marine collagen (facial skin [6]; baseline, 1 week and 2 weeks): increased skin hydration | cell viability (MTT) [7]: higher cell viability | skin elasticity (cutometer) (facial skin [8]; 1 week vs baseline): increased | skin elasticity (cutometer) (facial skin [8]; 2 weeks vs baseline): increased | levels of IL-la [9]: lower levels | antioxidant properties, Trolox (Vitamin E) equivalents ([10]; 0.1% solution): 193 μM Trolox | level of thymine dimers (DNA damage) [11]: lower level | cell viability (MTT) after urban dust exposure [12]: higher cell viability

B2: SEQ ID NO: 52: 13 kDa non-naturally occurring truncated human elastin without the DsbA secretion tag (protein)
chain: AGLGGVPGVGGLGVSAGAVVPQPGAGVKPGKVPGVGLPGVYPGGVLPGARFPGVGVLPGVPTGAGVKPKAPGVGGAFAGIPGVGPFGGPQPGVPLGYPIKAPKLPGGYGLPYTTGKLPYGYGPGGVAGAAGKAGYPTGTGVGPQ
secreted collagen type I (pro-collagen type I C-peptide) ([13]; 0.025% w/w solution): higher levels | secreted collagen type I (pro-collagen type I C-peptide) ([13]; 0.05% w/w solution): higher levels | secreted collagen type I (pro-collagen type I C-peptide) ([13]; 0.1% w/w solution): higher levels | production of elastin [14]: increased production | anti-oxidative capacity (ORAC) ([10]; 0.0125% w/w solution): anti-oxidative properties | anti-oxidative capacity (ORAC) ([10]; 0.025% w/w solution): anti-oxidative properties | anti-oxidative capacity (ORAC) ([10]; 0.05% w/w solution): anti-oxidative properties | anti-oxidative capacity (ORAC) ([10]; 0.1% w/w solution): anti-oxidative properties | anti-oxidative properties, Trolox (Vitamin E) equivalents ([10]; 0.2% w/w solution): 228 μM Trolox | anti-oxidative capacity (ORAC) ([10]; 0.2% w/w solution): anti-oxidative properties | expression of antioxidant genes, including SOD2, GPX2, GPX4, GSTK1, GSTZ1, GSTA4, GSTM2, CCS, GPX1, GLRX, PRDXS, PRDX6, and PRDX2 (Keratinocytes; FIG. 26): upregulated | expression of pro-apoptotic genes, including APAF1, BAK1, CASP7, CASP8, FADD, MCL1, and MET (Keratinocytes; FIG. 27): downregulated
